{
  "source": "paper doi:10.1101/2020.03.20.000893",
  "about": "(bioRxiv, 2020)",
  "proteins": {"B1": {"name": "K2P2.1_(cryst), engineered mouse K2P2.1 (TREK-1) (domain or fragment, UniProt P97438-2 21-322, looked up)", "chain": "SFSSKPTVLASRVESDSAINVMKWKTVSTIFLVVVLYLIIGATVFKALEQPQEISQRTTIVIQREKFLRAHPCVSDQELDELIQQIVAAINAGIIPLGASSNQVSHWDLGSSFFFAGTVITTIGFGNISPRTEGGKIFCIIYALLGIPLFGFLLAGVGDQLGTIFGKGIAKVEDTFIKWNVSQTKIRIISTIIFILFGCVLFVALPAVIFKHIEGWSALDAIYFVVITLTTIGFGDYVAGGSDIEYLDFYKPVVWFWILVGLAYFAAVLSMIGDWLRVIAKKTKEAVGEFRAHAAEWTANVT"}},
  "biological_target": "the molecule itself",
  "assay": "crystal structure",
  "data": [
    {"protein": "B1", "values": [
      {"measurement": "binding result", "result": "binds"}
    ]}
  ]
}
